These results are taken from paper PMC8760489 (The Journal of Biological Chemistry, 2021).

The target of the assay is T1, His6-TviD (Salmonella enterica serovar Typhi, UniProt Q04974 1-831).
T1 sequence: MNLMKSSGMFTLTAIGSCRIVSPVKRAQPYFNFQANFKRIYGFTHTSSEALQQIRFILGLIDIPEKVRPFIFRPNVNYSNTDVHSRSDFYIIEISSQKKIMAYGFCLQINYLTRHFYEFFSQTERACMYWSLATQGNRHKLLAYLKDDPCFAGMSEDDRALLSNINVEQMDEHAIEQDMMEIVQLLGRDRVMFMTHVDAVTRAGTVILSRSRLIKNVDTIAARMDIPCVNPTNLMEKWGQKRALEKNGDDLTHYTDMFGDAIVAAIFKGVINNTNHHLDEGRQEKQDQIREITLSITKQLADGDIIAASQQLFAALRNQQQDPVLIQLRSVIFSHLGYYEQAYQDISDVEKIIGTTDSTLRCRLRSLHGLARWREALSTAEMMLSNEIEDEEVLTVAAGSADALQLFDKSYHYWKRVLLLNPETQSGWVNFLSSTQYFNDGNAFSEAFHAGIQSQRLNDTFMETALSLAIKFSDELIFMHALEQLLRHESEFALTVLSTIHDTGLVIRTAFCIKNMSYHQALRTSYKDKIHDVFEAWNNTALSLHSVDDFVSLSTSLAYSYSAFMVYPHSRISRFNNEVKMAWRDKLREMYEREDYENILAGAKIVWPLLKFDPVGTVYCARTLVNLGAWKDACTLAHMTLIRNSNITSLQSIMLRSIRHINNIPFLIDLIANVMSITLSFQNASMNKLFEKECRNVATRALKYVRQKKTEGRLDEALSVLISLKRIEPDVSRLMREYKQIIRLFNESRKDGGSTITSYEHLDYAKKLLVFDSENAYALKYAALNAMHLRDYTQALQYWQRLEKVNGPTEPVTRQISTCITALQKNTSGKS
The experiment in a line: […].

B1: TviE-FLAG (enzyme)
chain: MITQEEKLAALGKTCLTLKQEKKLAQAVALIDSELPTEALTSLAMLKKAEFLHDVNETERAYALYETLIAQNNDEARYEYARRLYNTGLAKDAQLILKKVSNGVQKKYNNYLGKINKICDLLERLEGKAIPVGTNTCIIAMKHAILFYRNRQPRQLPVGSFGRLALCTGSLGSGGAERQISRLAIEIARKYRQKGKIGGLKVEEPVELIIRSLTPELRQDFFLKEVLEEQVEVLEIAKITGNLFDDATIESPELRLLLSHLPPVCKYGIKHLVPHLCERKLDYLSVWQDSACLMIALAALIAGVPRIQLGLRGLPPVVRKRLFKPEYEPLYQALAVVPGVDFMSNNHCVTRHYADWLKLEAKHFQVVYNGVLPPSTEPSSEVPHKIWQQFTQKTQDADTTIGGVFRFVGDKNPFAWIDFAARYLQHHPATRFVLVGDGDLRAEAQKRAEQLGILERILFVGASRDVGYWLQKMNVFILFSRYEGLPNVLIEAQMVGVPVISTPAGGSAECFIEGVSGFILDDAQTVNLDQACRYAEKLVNLWRSRTGICQQTQSFLQERFTVEHMVGTFVKTIASQPR
Turning to B1, the binding result was “binds”.
